Source: article PMC7213743, “ArdC, a ssDNA-binding protein with a metalloprotease domain, overpasses the recipient hsdRMS restriction system broadening conjugation host range”

Experiments:
ArdC [1] = target: T1, ArdC (Escherichia coli plasmid R388 …, UniProt Q6I6B2 22-318); test: EMSA; 0-1 uM ArdC, 50 nM DNA; preferred over dsDNA; EMSA: 50 mM NaCl, 25 mM Tris-HCl pH 7.5, 0.5 mM EDTA, room temperature 30 min, 50 nM DNA; 10% native PAGE in cold 1x TBE; settings: protein: recombinant; label: 6FAM (5'); single strand
T1 sequence: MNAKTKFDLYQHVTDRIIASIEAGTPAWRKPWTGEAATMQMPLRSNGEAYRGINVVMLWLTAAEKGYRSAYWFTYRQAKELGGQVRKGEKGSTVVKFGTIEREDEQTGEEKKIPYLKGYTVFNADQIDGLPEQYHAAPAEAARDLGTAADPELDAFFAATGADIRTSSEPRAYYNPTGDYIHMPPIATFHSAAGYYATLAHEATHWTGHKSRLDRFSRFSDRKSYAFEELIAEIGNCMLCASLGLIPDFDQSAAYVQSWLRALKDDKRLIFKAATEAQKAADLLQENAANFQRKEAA

ArdC [2] = target: T1, ArdC; test: EMSA; 0-1 uM ArdC, 50 nM DNA; preferred over blunt duplex; EMSA: 50 mM NaCl, 25 mM Tris-HCl pH 7.5, 0.5 mM EDTA, room temperature 30 min, 50 nM DNA; 10% native PAGE in cold 1x TBE; settings: protein: recombinant, label: 6FAM (5' of strand 1)

## TACGCTCTTGGGCGCGCTGAATATGAGGTCAAGGCCGATGCGCTC (ssDNA) [Fluor-T87I2 (45 b ssDNA)]
ArdC [1]
  binding result: binds

B1: Fluor-T87I2 + Mid1 (partial duplex) (mixed)
DNA 1: TACGCTCTTGGGCGCGCTGAATATGAGGTCAAGGCCGATGCGCTC
DNA 2: GAGCGCATCGGCCTTGAC
ArdC [2]; 18 bp duplex, 5' overhang 27 nt (strand 1)
  binding result: binds

B2: Fluor-T87I2 + Mid2 (partial duplex) (mixed)
DNA 1: B1 DNA 1
DNA 2: CTCATATTCAGCGCGCCCAAGAGCGTA
ArdC [2]; 27 bp duplex, 3' overhang 18 nt (strand 1)
  binding result: binds
